# Test results from IntAct's records for PubMed 21816274.
# B1: Gem-associated protein 2 (Homo sapiens), O14893 (parent)
# chain: MRRAELAGLKTMAWVPAESAVEELMPRLLPVEPCDLTEGFDPSVPPRTPQEYLRRVQIEAAQCPDVVVAQIDPKKLKRKQSVNISLSGCQPAPEGYSPTLQWQQQQVAQFSTVRQNVNKHRSHWKSQQLDSNVTMPKSEDEEGWKKFCLGEKLCADGAVGPATNESPGIDYVQIGFPPLLSIVSRMNQATVTSVLEYLSNWFGERDFTPELGRWLYALLACLEKPLLPEAHSLIRQLARRCSEVRLLVDSKDDERVPALNLLICLVSRYFDQRDLADEPS
# Variants of: B1
# Conditions: with smn_human SMN1, Q16637
# Sequence of smn_human SMN1, Q16637 (Q16637 whole entry): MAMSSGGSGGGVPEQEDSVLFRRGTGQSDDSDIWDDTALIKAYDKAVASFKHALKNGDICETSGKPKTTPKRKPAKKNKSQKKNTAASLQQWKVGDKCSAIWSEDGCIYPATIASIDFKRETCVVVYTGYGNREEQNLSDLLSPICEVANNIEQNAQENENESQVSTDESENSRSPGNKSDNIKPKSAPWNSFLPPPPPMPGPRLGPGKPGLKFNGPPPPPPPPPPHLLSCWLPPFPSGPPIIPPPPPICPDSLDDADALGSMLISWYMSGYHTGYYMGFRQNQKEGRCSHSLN
row,Variant,effect of a mutation on the interaction
1,R213D,disrupting interaction
